Laboratory results published in PMC8534766.
Starred links: 1 amine or outer side, 2 acyl side, 3 side chain; linkers in the order of their positions; H or OH if unused. Benzoyl(5-NH,2-NO2) = O=C(c1cc(N[*:1])ccc1[N+](=O)[O-])[*:2]

Target: SP-1, serine protease from Clostridium ramosum DSM1402 (Clostridium ramosum DSM1402)

Binder: {ABZ}-IMAR-{Benzoyl(5-NH,2-NO2)-NH2} [ABZ-Ileu-Met-Ala-Arg-ANB-NH2]
- KM of steady-state cleavage of the substrate by SP-1 (20 nM SP-1, 0.05-2 mM substrate, 20 mM Tris, 300 mM NaCl, 1 mM CaCl2, pH 8, room temperature; Michaelis-Menten fit): 0.000191 M
